Assays:
[1] = substrate: O=C(O)/C=C/c1ccccc1; assay: Kinetics of purified EREDCA, NADH oxidation at 340 nm, anaerobic; assay type: biochemical, Clostridium acetobutylicum DSM 1731; conditions: other: trans-cinnamic acid, pH 7.0, 30° C., anaerobic
Method: (§1) The C═C reducing activity of EREDs was examined. Enzyme activity of purified EREDs was measured spectrophotometrically in 96-well plates by following incubation for 3-5 min at 30° C. in the anaerobic chamber as described in M. Buhler, H. Simon, Hoppe-Seyler's Zeitschrift fur Physiologische Chemie 1982, 363, 609-625. Buffers and reagents were degassed and sparged with Ar. Reaction mixture contained potassium phosphate (100 mM and pH 7.0), NADH (0.5 mM), indicated substrates, and proteins (0.1-50 μg) in a final volume of 200 μL. Enzyme reactions were monitored by following the decrease in absorbance at 340 nm (ε340 nm=6,220/M·cm) due to oxidation of NADH to NAD+.
(§2) For in vitro biochemical characterization, enzyme activities of purified EREDs were measured with 2-hexenedioic acid, cis-cis-muconic acid, trans-trans muconic acid, trans-cinnamic acid, trans-2-methyl-2-butenoic acid, trans-2-butenoic acid, acrolein, 2-cyclohexen-1-one, and 3-methyl-2-cyclohexenone. […] [Feng, J. et al. Discovery and Characterization of BlsE, a Radical S-Adenosyl-L-methionine Decarboxylase Involved in the Blasticidin S Biosynthetic Pathway. PLoS ONE 8 (2013)].
(§3) To increase the dissolved substrate concentration, 2-hexenedioic acid was dissolved in a reaction mixture containing […] (final concentration) isopropanol, and kinetic constants of EREDBC and EREDCA were determined.

[2] = substrate: O=C(O)C=CCCC(=O)O; assay: as above; assay type: biochemical, Clostridium acetobutylicum DSM 1731; conditions: other: 2-hexenedioic acid in 0.25 mM isopropanol, 2.5 to 35 mM, sigmoidal kinetics, pH 7.0, 30.0 °C
Method: as §1, §2, §3

B1: Clostridium acetobutylicum DSM 1731 2-enoate reductase EREDCA, SEQ ID NO: 2 (Clostridium acetobutylicum ATCC 824) (protein)
chain: MNKYKKLFEPIKIGKCEIKNRFALAPMGPLGLADSEGGFNQRGIDYYTERAKGGTGLIITGVTFVDNEVEEHGMPNCPCPTHNPVQFVRTGREMTERIHAYNSKVFLQMSGGFGRVTIPTNLGEFPPVAPSPIQHRWLDKTCRELTVDEIKSIVKKFGEGAFNAKRAGFDGVQIHAVHEGYLIDQFAISLFNHRTDEYGGSLENRLRFAREIVEEIKNRCGEDFPVTLRYSPKSFIKDLRDGALPGEEFVEKGRDLDEGVEAAKLLVSYGYDALDTDVGSYDSWWWSHPPMYQEKGLYRKYAKLMKDTVDVPVICAGRMDDPDMALEAVENGTCDVISLGRPLLADPDYVNKLRSNKCKSIRPCISCQEGCMGRVQHYSMLNCAVNPQACKERANSLTPIIKSKKVLIVGGGVAGCEAARVLALRGHEPVLYEKSNRLGGNLIPGGAPSFKEDDIALADWYTNTLKELNVEVNLNSEVTKEQILNSKFDTVIVATGSTPKVFPLGDDEKVFTAAEVLLGQKDPGETTVVVGGGLVGCELALDLAKKGKKVTIVEALNKILALNGPLCSANSEMLQKLIPFNGIDVKANSKVKGYKNGLLKMETENGIEELPCDSVILSVGYKEENSLYKELEFEIPEIYLLGDARKVSNIMYGIWDAFEVANHI
[1]
  Km: 0.17 mM
  kcat: 5.2 s⁻¹
[2]
  Km: 20.47 mM

Source: US12371675B2, “Process and microorganism for synthesis of adipic acid from carboxylic acids” (THE GOVERNING COUNCIL OF THE UNIVERSITY OF TORONTO, priority 2015, dated 2025)
